The values below are quoted from earlier work in article PMC10404681, “Intrinsic catalytic properties of histone H3 lysine-9 methyltransferases preserve monomethylation levels under low S-adenosylmethionine” (The Journal of Biological Chemistry, 2023).

The data set has as its target histone H3 peptide (Homo sapiens) (UniProt P68431).

Sequence of EHMT1/EHMT2 heterodimer (Q9H9B1 2-1298): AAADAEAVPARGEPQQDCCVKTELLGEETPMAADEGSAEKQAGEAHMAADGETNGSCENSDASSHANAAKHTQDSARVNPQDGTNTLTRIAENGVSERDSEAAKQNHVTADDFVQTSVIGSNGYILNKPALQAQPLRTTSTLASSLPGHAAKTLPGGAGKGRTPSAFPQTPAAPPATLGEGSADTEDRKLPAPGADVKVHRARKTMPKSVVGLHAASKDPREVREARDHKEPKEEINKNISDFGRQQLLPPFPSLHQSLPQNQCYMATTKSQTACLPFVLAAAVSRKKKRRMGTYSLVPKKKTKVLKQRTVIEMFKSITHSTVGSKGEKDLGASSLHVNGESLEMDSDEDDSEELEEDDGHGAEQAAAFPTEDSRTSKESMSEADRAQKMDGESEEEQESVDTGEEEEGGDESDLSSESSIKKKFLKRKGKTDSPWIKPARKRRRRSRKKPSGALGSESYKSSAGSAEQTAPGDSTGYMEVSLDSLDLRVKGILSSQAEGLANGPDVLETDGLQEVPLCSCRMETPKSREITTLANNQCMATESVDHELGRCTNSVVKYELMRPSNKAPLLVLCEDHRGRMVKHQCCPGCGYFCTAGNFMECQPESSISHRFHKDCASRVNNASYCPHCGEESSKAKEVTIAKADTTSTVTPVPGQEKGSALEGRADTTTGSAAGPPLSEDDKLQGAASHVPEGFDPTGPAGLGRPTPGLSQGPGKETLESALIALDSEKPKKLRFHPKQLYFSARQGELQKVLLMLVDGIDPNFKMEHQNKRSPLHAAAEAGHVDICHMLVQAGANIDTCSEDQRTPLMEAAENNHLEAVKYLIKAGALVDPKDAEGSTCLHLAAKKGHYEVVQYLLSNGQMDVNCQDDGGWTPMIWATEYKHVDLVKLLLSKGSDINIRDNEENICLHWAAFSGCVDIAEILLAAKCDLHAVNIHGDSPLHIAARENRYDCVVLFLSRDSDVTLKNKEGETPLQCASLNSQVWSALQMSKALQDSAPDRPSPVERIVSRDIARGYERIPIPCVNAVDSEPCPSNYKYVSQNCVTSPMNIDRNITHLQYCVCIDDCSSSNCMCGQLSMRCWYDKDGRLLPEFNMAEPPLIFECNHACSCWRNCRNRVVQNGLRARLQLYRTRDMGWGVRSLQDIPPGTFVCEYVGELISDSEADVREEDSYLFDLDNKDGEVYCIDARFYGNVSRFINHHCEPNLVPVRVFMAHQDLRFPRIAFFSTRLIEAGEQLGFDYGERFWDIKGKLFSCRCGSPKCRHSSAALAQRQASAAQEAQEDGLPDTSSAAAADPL
Sequence of EHMT1/EHMT2 heterodimer (Q96KQ7 2-1210, further chain): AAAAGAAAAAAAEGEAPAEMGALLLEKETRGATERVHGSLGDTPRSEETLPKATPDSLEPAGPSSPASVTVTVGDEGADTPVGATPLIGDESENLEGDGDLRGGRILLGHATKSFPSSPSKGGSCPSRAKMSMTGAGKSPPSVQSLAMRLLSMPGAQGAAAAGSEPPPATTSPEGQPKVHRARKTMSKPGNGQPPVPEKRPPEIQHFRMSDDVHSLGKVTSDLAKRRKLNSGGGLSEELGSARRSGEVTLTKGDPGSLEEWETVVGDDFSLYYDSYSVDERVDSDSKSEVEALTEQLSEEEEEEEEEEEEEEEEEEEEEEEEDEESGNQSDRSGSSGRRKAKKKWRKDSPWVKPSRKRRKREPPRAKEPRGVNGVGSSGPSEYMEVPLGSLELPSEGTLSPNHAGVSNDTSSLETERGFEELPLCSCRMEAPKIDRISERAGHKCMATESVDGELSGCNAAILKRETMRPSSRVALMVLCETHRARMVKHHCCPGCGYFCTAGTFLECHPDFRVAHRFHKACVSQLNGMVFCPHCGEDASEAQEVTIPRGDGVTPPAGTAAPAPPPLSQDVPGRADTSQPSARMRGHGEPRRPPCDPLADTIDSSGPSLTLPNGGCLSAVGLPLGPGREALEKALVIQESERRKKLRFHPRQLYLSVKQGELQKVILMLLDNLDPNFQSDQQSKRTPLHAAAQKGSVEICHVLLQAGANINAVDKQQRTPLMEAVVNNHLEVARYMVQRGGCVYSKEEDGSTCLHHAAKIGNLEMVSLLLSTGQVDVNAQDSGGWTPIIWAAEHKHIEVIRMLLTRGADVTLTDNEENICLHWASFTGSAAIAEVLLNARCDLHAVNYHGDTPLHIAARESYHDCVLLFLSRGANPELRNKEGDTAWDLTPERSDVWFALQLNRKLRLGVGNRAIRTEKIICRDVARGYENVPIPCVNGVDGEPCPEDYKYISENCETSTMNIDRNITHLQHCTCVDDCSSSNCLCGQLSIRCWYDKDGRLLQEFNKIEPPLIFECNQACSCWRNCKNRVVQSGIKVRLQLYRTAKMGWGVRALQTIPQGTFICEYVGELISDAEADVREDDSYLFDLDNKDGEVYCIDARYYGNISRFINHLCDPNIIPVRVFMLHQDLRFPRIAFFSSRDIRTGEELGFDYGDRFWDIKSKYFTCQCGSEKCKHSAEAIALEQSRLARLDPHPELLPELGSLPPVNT

Turning to “EHMT1/EHMT2 heterodimer (from UniProt Q9H9B1)”, the Kd was 7.35 µM.

A word on the Kd: it is the concentration at which binding is half-saturated.
